Measured values taken from paper PMC9368917.

Molecular target: T1, 3xFLAG-STM0347 (Salmonella enterica serovar Typhimurium (strain not stated in the given text)) (UniProt H9L417)
T1 sequence: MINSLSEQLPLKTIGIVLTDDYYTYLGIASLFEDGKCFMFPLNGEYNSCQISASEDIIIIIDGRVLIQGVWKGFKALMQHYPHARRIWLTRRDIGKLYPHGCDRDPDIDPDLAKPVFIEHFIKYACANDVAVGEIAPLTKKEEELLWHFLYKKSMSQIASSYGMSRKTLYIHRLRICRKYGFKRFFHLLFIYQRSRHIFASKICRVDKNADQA
Assay: EMSA
Settings: 10 mM Tris-HCl pH 8.3, 50 mM KCl, 1 mM MgCl2, 0.5 mM DTT, 0.5 mM EDTA, 50 ug/mL BSA, 0.2% glycerol; room temperature 20 min; 6% native PAGE in 1x TAE in ice …

With “CATCGCTCAAAACACTACCAGACACAGTATTCACCTGGAAAGGCTTTTTAATCAAAATGTTAGATGTAAGCAATTACGGACAGAAAAAATAGTAAAGTTTATGCCTCAAGTGTCGATAACCTGGATGACACAGGTAAGCCTGGCATAACATTGGTTATCAAAAACCTTCCAAAAGGAAAATTTTATGGCACAAGTAATCAACACTAACAGTCTGTCGCTGCTGACCCAGAATAACCTGAACAAATCCCAGTCCGCACTGGGCACCGCTATCGAGCGTCTGTCTTCTGGTCTGCGTATCAA (double strand) [fljB promoter fragment]” the binding was “no binding”.
